B1: 抗CD20キメラ抗体 1k1422 (antibody, V domains shown)
VH: QVQLQQPGAELVKPGASVKMSCRASGYTFTNYNMHWIKQTPGQGLEWIGAIYPGSGDTSYNRKFKGKATLTADTSSSTAYMQFSSLTSADSAVYYCARFTYYYGGTYGAMDYWGQGTSVTVSL
VL: QIVLTQSPPIMSASLGEEITLTCSASSRVSYMLWYQQKSGTSPKLLIYSTSNLASGVPSRFSGSGSGTFYSLTISSVEAEDAADYYCHQWTSNPCTFGGGTKLEIK
B2: 抗CD20キメラ抗体 1k0924 (antibody, V domains shown)
VH: QVQLQQPGAELVKPGASVKMSCKASGYTFTSYNIHWVKQTPGQGLEWIGAIYPGNGDTSYNQKFKGKATLTSDKSSSTAYMQLSSLTSEDSAVYYCARMSTMITGFDYWGQGTTLTVSS
VL: QIVLSQSPAILSASPGEKVTMTCRASSSVSYMHWYQQRPGSSPKPWIYATSNLASGVPARFSGSGSGTSYYFTISRVEAEDAATYYCQQWNSNPPTHGGGTKLEIK
B3: 抗CD20キメラ抗体 1k1736 (antibody, V domains shown)
VH: QVQLQQPGAELVKPGASVKMSCKASGYTFTTYNLHWVKQTPGQGLEWIGGIYPGNGDTSYNQKFKVKATLTADKSSNTAYMQLSSLTSEDSAVYYCARWIYYGNYEGTLDYWGQGTSVTVSS
VL: QIVLSQSPAILSSSPGEKVTMTCRASSSVSYMLWYQQKPGSSPEPWIYATSNLASGVPARFSGGGSGTSYSLTISRVEAEDAATYYCQQWTFNPPTFGGGTKLEIK
B4: ヒト化抗CD20モノクローナル抗体 hz1791-ss (antibody, V domains shown)
VH: QIQLVQSGSELKKPGASVKVSCKASGYTFTNFGVNWVRQAPGKGLKWMGWINTYTGEPSYAQGFTGRFAFSLDASVSTAYLQISSLKAEDTATYFCTRRTNYYGTSYYYAMDYWGQGTTVTVSS
VL: STVMTQSPDSLAVSLGERATINCKSSQSNSNDVAWYQQKPGQSPKVLIYFASNRYSGVPDRFSGSGYGTDFTLTISSLQAEDVAVYFCQQDYSSPLTFGAGTKLEIK
notes: also called ss; hz1791-ss32
B5: 抗ヒトCD20マウスモノクローナル抗体 1k1782 (antibody, V domains shown)
VH: QVQLQQSGAELAKPGASVKMSCKASGYTFTSYWMHWVKQRPGQGLEWIGYITPSTGYTDYNKKFKDKATLTADRSSSTAYMHLSSLTSEDSAVYYCARSGPYFDVWGAGTTVTVSS
VL: DILLTQSPAILFVSPGERVSLSCRASQNIGTSIHWYQQRTNGSPRLLIKYASESFSGIPSRFSGSGSGTDFTLSINSVESEDIADYYCQQSNSWPFTFGSGTKLEIK
notes: Mouse monoclonal antibody from hybridoma; also called m1782
B6: 抗ヒトCD20マウスモノクローナル抗体 1K1228 (antibody, V domains shown)
VH: QVQLQQPGAELVKPGASVKVSCKASGFTFTSYNLHWVKQTPGQGLVWIGAIYPGNGDTSYNQKFRGKATLTADISSSTAYMQLSSLTSEDSAVYYCARYYYGYDAMDYWGQGTSVTVSS
VL: EIILTQSPTTMAASPGEKITITCSASSSISSYYLRWYQQKPGFSPKVLIYRTSNLASGVPARFSGSGSGTSYSLTIGTMEAEDVATYYCQQGNTVPLTFGSGTKLEIK
notes: Mouse monoclonal antibody from hybridoma; also called m1228
B7: 抗ヒトCD20マウスモノクローナル抗体 1k1712 (antibody, V domains shown)
VH: QVQLQQPGAELVKPGASVKMSCKASGFTFTSYNLHWVKQTPGQGLEWIGAIYPGSGDTSYNQQFKGKATLTADKSSNTAYMQLNSLTSEDSAVYCCARSAMISTGNWYFDYWGQGTTLTVSS
VL: QIVLSQSPAILSASPGEKVTMTCRASSSVSYMDWYQQKPGSSPKPWIYATSNLASGVPARFSGSGSGTSYSLTISRVEAEDTATYYCQQWTFNPPTFGSGTKLEIK
notes: Mouse monoclonal antibody from hybridoma; also called m1712
B8: 抗ヒトCD20マウスモノクローナル抗体 1k1402 (antibody, V domains shown)
VH: QVQLQQPGAELVKPGASVKMSCKASGFTFTSYNMHWVKQTPGQGLEWIGGIYPGNGDTSYNQKFKGKATLTADKSSSTAYMQLSSLTSEDSAVYYCARFYYYGSMGAMDYWGQGTSVTVSS
VL: QIVLSQSPAILSASPGEKVTMTCRASSSVSYMHWYQQKPGSSPKPWIYATSNLASGVPARFSGSGSGTSYSLTITRVEAEDAATYYCQQWTFNPPTFGAGTKLELK
notes: Mouse monoclonal antibody from hybridoma; also called m1402
B9: ヒト化抗CD20モノクローナル抗体 hz1791-ff (antibody, V domains shown)
VH: QIQLVQSGSELKKPGASVKVSCKASGYTFTNFGVNWVKQAPGKGLKWMGWINTYTGEPSYADDFKGRFAFSLDASASTAYLQISSLKAEDMATYFCTRRTNYYGTSYYYAMDYWGQGTTVTVSS
VL: STVMTQSPSFLSASVGDRVTITCKASQSVSNDVAWYQQKPGQSPKVLIYFASNRYTGVPDRFSGSGYGTDFTLTISSLQAEDVAVYFCQQDYSSPLTFGAGTKLEIK
notes: also called ff; hz1791-ff34
B10: ヒト化抗CD20モノクローナル抗体 hz1791-sf (antibody, V domains shown)
VH: QIQLVQSGSELKKPGASVKVSCKASGYTFTNFGVNWVKQAPGKGLKWMGWINTYTGEPSYADDFKGRFAFSLDASASTAYLQISSLKAEDMATYFCTRRTNYYGTSYYYAMDYWGQGTTVTVSS
VL: STVMTQSPDSLAVSLGERATINCKSSQSNSNDVAWYQQKPGQSPKVLIYFASNRYSGVPDRFSGSGYGTDFTLTISSLQAEDVAVYFCQQDYSSPLTFGAGTKLEIK
notes: also called sf; hz1791-sf43
B11: ヒト化抗CD20モノクローナル抗体 hz1791-fv (antibody, V domains shown)
VH: QIQLVQSGPELKKPGASVKISCKASGYTFTNFGVNWVKQAPGKGLKWMGWINTYTGEPSYADDFKGRFAFSLDASVSTAYLQISSLKAEDTSTYFCTRRTNYYGTSYYYAMDYWGQGTTVTVSS
VL: STVMTQSPSFLSASVGDRVTITCKASQSVSNDVAWYQQKPGQSPKVLIYFASNRYTGVPDRFSGSGYGTDFTLTISSLQAEDVAVYFCQQDYSSPLTFGAGTKLEIK
notes: also called fv; hz1791-fv10

Several values for one entry are separate records, joined by “and”; a condition that tells them apart may be missing. Equal values may be shown once.

The first assay deals with T1, ヒトCD20抗原 (human, UniProt P11836 1-297).
T1 sequence (looked up): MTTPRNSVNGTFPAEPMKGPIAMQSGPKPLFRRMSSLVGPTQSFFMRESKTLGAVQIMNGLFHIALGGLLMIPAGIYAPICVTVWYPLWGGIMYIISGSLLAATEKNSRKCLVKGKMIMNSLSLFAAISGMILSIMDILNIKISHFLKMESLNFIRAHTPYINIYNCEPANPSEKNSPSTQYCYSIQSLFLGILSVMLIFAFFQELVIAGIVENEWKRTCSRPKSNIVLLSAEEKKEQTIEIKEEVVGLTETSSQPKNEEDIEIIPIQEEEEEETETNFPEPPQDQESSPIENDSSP
Put plainly: cell-based or functional assay.
For the molecule B1, the “CDC 傷害活性 (RC−K8細胞)” value was ~10 %.
For B2, the “CDC 傷害活性 (RC−K8細胞)” value is ~25 %.
Same read-out and setting: then B3, with ~10 %.

The target in a further assay is T1, ヒトCD20抗原. Put plainly: Scatchard analysis, Raji cells.
As for B4, the binding result is reported as “binds”.
For B5, the binding result was “binds”.
With B6, the binding result was “binds”.
Still for that read-out and setting: for B7 the value was “binds”; for B8, “binds”.

A further assay concerns the target T1, ヒトCD20抗原. Kind of assay: Scatchard analysis, Raji cells, FITC-labelled secondary antibody fluorescence.
Broadly, the Kd is the constant that tells how readily two partners part at equilibrium. Lower therefore signals tighter binding. For B9, the Kd is < 9.5 nM.
On the same count and under the same terms, for B10 the value was 13 nM and 9.5 nM; for B11, < 9.5 nM.

(Values after patent publication JP2010189402A (dated 2010).)
